Literature values, collected in article PMC8125740.
pKd: −log10 of the molar value.

Molecular target: Amyloid beta (Homo sapiens) (UniProt P05067)

For “Cellular prion protein (from UniProt P04156)”, the pKd is given as 9.00.
